Test results: article PMC3604778
Where two headings read alike, the source gives them in different places.

Assays:
[1] = biological target: human plasminogen (human); assay: radioligand binding
[2] = biological target: SCM expressed on the surface of S. canis G361 (Streptococcus canis (endogenous in strain G361)); assay: radioligand binding
[3] = biological target: SCM expressed on the surface of S. canis G361 (Streptococcus canis (endogenous in strain G361)); assay: radioligand binding; remark: listed apart in the source
[4] = biological target: human plasminogen (human); assay: SPR

Substance: purified recombinant SCM, M-like protein of S. canis (derived from strain G361) (natural protein)
- percent binding of 125I-plasminogen to G361 left with 1.0 µM nonlabeled SCM [1]: 41.3%
- percent binding of 125I-SCM to G361 (1 × 10^7 bacteria) [2]: 13.1%
- percent binding of 125I-SCM to G361 (2 × 10^7 bacteria) [2]: 19.3%
- percent binding of 125I-SCM to G361 (4 × 10^6 bacteria) [2]: 6.5%
- percent binding of 125I-SCM to G361 (control without inhibitor) [2]: 28.7%
- percent binding of 125I-SCM to G361 bacteria [2]: 23.5%
- percent binding of 125I-SCM to G361 left with 1.0 µM nonlabeled SCM [2]: 15.8%
- percent binding of 125I-SCM to G361 left with 10.0 µg nonlabeled SCM [2]: 4.2%
- percent specific binding of 125I-SCM to G361 bacteria [2]: 20.5%
- percent binding of 125I-SCM to G361 bacteria [3]: 25.7%

Substance: recombinant S. canis enolase (strain G361) (from UniProt A0A2D4DNT6 1-435) (enzyme)
- Kd [4]: 800 nM
